Patent US20180080021

Molecular target: polymerized microtubules

B1: recombinant R293W mutant KIF3B motor domain (amino acids 1-365) with N-terminal 6x-Histidine tag (protein)
chain: MSKLKSSESVRVVVRCRPMNGKEKAASYDKVVDVDVKLGQVSVKNPKGTAHEMPKTFTFDAVYDWNAKQFELYDETFRPLVDSVLQGFNGTIFAYGQTGTGKTYTMEGIRGDPEKRGVIPNSFDHIFTHISRSQNQQYLVRASYLEIYQEEIRDLLSKDQTKRLELKERPDTGVYVKDLSSFVTKSVKEIEHVMNVGNQNRSVGATNMNEHSSRSHAIFVITIECSEVGLDGENHIRVGKLNLVDLAGSERQAKTGAQGERLKEATKINLSLSALGNVISALVDGKSTHIPYWDSKLTRLLQDSLGGNAKTVMVANVGPASYNVEETLTTLRYANRAKNIKNKPRVNEDPKDALLREFQEEIARL
rate of ATP hydrolysis (kinesin ATPase end-point assay, free phosphate) with increasing amounts of microtubules: When compared to wild-type, the mutant motor domain displayed a significantly reduced rate of ATP hydrolysis upon incubation with various concentrations of microtubules
